Measurements from the supplement of paper PMC9112550, “Optimization of the antimicrobial peptide Bac7 by deep mutational scanning” (BMC Biology, 2022).

Tested on: Escherichia coli TOP10
Experiment: shrunken log2 fold change of peptide-encoding DNA abundance (4.5 h post-induction vs induction); higher = less antimicrobial activity (less host growth inhibition)
Conditions: time post-induction: 4.5 h; library: site-saturation at positions 5, 18, 19, 20
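Further: peptides expressed intracellularly from a pBAD plasmid library in pooled LB shake-flask culture, induced with 0.3% L-arabinose, DNA abundance read by NGS, three biological replicates, DESeq2 with apeglm shrinkage.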

Sequence | shrunken log2 fold change
RRIRKRPPRLPRPRPRPFFGPRP | 0.304
RRIRKRPPRLPRPRPRPFHVPRP | -0.265
RRIRKRPPRLPRPRPRPFIQPRP | 0.0388
RRIRKRPPRLPRPRPRPFKQPRP | 0.0339
RRIRKRPPRLPRPRPRPFMIPRP | -0.326
RRIRKRPPRLPRPRPRPFNHPRP | -0.993
RRIRKRPPRLPRPRPRPFNMPRP | 0.0229
RRIRKRPPRLPRPRPRPFNRPRP | -0.203
RRIRKRPPRLPRPRPRPFPPPRP | 0.33
RRIRKRPPRLPRPRPRPFRKPRP | -0.304
RRIRKRPPRLPRPRPRPFRLPRP | 0.0113
RRIRKRPPRLPRPRPRPFRYPRP | -0.0832
RRIRKRPPRLPRPRPRPFTCPRP | 0.182
RRIRKRPPRLPRPRPRPFTKPRP | -0.0833
RRIRKRPPRLPRPRPRPFVGPRP | -0.0257
RRIRKRPPRLPRPRPRPFVLPRP | 0.389
RRIRKRPPRLPRPRPRPFYAPRP | -0.0279
RRIRKRPPRLPRPRPRPFYHPRP | 0.0754
RRIRKRPPRLPRPRPRPFYPPRP | -0.0703
RRIRKRPPRLPRPRPRPGADPRP | 0.709
RRIRKRPPRLPRPRPRPGESPRP | 0.0841
RRIRKRPPRLPRPRPRPGGRPRP | 1.91
RRIRKRPPRLPRPRPRPGIIPRP | -0.000605
RRIRKRPPRLPRPRPRPGIVPRP | 0.0403
RRIRKRPPRLPRPRPRPGLGPRP | 0.406

Sequence | shrunken log2 fold change
RRIRKRPPRLPRPRPRPGLHPRP | 0.0334
RRIRKRPPRLPRPRPRPGLPPRP | 0.348
RRIRKRPPRLPRPRPRPGLSPRP | 0.0644
RRIRKRPPRLPRPRPRPGNYPRP | -0.113
RRIRKRPPRLPRPRPRPGPNPRP | 0.795
RRIRKRPPRLPRPRPRPGPSPRP | 2.27
RRIRKRPPRLPRPRPRPGPYPRP | 0.104
RRIRKRPPRLPRPRPRPGQVPRP | 0.00902
RRIRKRPPRLPRPRPRPGRCPRP | 0.586
RRIRKRPPRLPRPRPRPGSIPRP | 0.00442
RRIRKRPPRLPRPRPRPGVAPRP | 0.892
RRIRKRPPRLPRPRPRPGVQPRP | 0.228
RRIRKRPPRLPRPRPRPGWCPRP | 0.639
RRIRKRPPRLPRPRPRPGWWPRP | 0.0245
RRIRKRPPRLPRPRPRPGYVPRP | -0.0738
RRIRKRPPRLPRPRPRPHADPRP | 0.0566
RRIRKRPPRLPRPRPRPHAIPRP | -0.142
RRIRKRPPRLPRPRPRPHARPRP | 0.709
RRIRKRPPRLPRPRPRPHFEPRP | 0.101
RRIRKRPPRLPRPRPRPHFWPRP | 0.188
RRIRKRPPRLPRPRPRPHHAPRP | -0.066
RRIRKRPPRLPRPRPRPHHFPRP | -0.0062
RRIRKRPPRLPRPRPRPHHTPRP | -0.254
RRIRKRPPRLPRPRPRPHIKPRP | -0.0411
RRIRKRPPRLPRPRPRPHINPRP | -0.124

Sequence | shrunken log2 fold change
RRIRKRPPRLPRPRPRPHIWPRP | 0.143
RRIRKRPPRLPRPRPRPHKPPRP | -0.0045
RRIRKRPPRLPRPRPRPHKYPRP | -0.448
RRIRKRPPRLPRPRPRPHNGPRP | 0.169
RRIRKRPPRLPRPRPRPHPAPRP | 0.429
RRIRKRPPRLPRPRPRPHPPPRP | 1.27
RRIRKRPPRLPRPRPRPHTMPRP | 0.205
RRIRKRPPRLPRPRPRPHVHPRP | -0.105
RRIRKRPPRLPRPRPRPHVNPRP | 0.0388
RRIRKRPPRLPRPRPRPHYRPRP | 0.0224
RRIRKRPPRLPRPRPRPIARPRP | -0.0481
RRIRKRPPRLPRPRPRPIAVPRP | 0.131
RRIRKRPPRLPRPRPRPICNPRP | 0.102
RRIRKRPPRLPRPRPRPICVPRP | 0.0188
RRIRKRPPRLPRPRPRPICWPRP | 0.239
RRIRKRPPRLPRPRPRPIDHPRP | -0.0104
RRIRKRPPRLPRPRPRPIDNPRP | 0.0107
RRIRKRPPRLPRPRPRPIEDPRP | -0.0345
RRIRKRPPRLPRPRPRPIEFPRP | 0.0427
RRIRKRPPRLPRPRPRPIFVPRP | 0.471
RRIRKRPPRLPRPRPRPIGEPRP | -0.0126
RRIRKRPPRLPRPRPRPIGSPRP | -0.0113
RRIRKRPPRLPRPRPRPIICPRP | -0.0679
RRIRKRPPRLPRPRPRPIKAPRP | 0.211
RRIRKRPPRLPRPRPRPIKEPRP | -0.0178

Sequence | shrunken log2 fold change
RRIRKRPPRLPRPRPRPIMMPRP | -0.0529
RRIRKRPPRLPRPRPRPINGPRP | 0.00103
RRIRKRPPRLPRPRPRPISMPRP | -0.00992
RRIRKRPPRLPRPRPRPITSPRP | 0.22
RRIRKRPPRLPRPRPRPIVEPRP | 0.00111
RRIRKRPPRLPRPRPRPIVGPRP | 0.117
RRIRKRPPRLPRPRPRPIWCPRP | -0.0231
RRIRKRPPRLPRPRPRPIWNPRP | -0.0253
RRIRKRPPRLPRPRPRPKCKPRP | 0.545
RRIRKRPPRLPRPRPRPKELPRP | 0.566
RRIRKRPPRLPRPRPRPKFEPRP | -0.0585
RRIRKRPPRLPRPRPRPKGQPRP | 0.00959
RRIRKRPPRLPRPRPRPKGYPRP | -0.00627
RRIRKRPPRLPRPRPRPKHFPRP | 0.024
RRIRKRPPRLPRPRPRPKHRPRP | 0.237
RRIRKRPPRLPRPRPRPKIEPRP | -0.0694
RRIRKRPPRLPRPRPRPKIMPRP | 0.193
RRIRKRPPRLPRPRPRPKKKPRP | 0.0709
RRIRKRPPRLPRPRPRPKLEPRP | -0.0306
RRIRKRPPRLPRPRPRPKLRPRP | -0.0198
RRIRKRPPRLPRPRPRPKMRPRP | 0.56
RRIRKRPPRLPRPRPRPKPRPRP | 1.06
RRIRKRPPRLPRPRPRPKPWPRP | 0.526
RRIRKRPPRLPRPRPRPKQQPRP | 0.0737
RRIRKRPPRLPRPRPRPKSCPRP | 0.00967

Sequence | shrunken log2 fold change
RRIRKRPPRLPRPRPRPKSIPRP | -0.0265
RRIRKRPPRLPRPRPRPKYYPRP | -0.0776
RRIRKRPPRLPRPRPRPLAFPRP | 0.278
RRIRKRPPRLPRPRPRPLDHPRP | 0.118
RRIRKRPPRLPRPRPRPLDMPRP | 0.0395
RRIRKRPPRLPRPRPRPLECPRP | -0.00691
RRIRKRPPRLPRPRPRPLFMPRP | -0.0207
RRIRKRPPRLPRPRPRPLHCPRP | 0.0213
RRIRKRPPRLPRPRPRPLIAPRP | 0.456
RRIRKRPPRLPRPRPRPLILPRP | -0.265
RRIRKRPPRLPRPRPRPLKHPRP | 0.0711
RRIRKRPPRLPRPRPRPLKRPRP | 0.321
RRIRKRPPRLPRPRPRPLKSPRP | 0.713
RRIRKRPPRLPRPRPRPLMEPRP | 0.124
RRIRKRPPRLPRPRPRPLMSPRP | 0.0201
RRIRKRPPRLPRPRPRPLMVPRP | 0.0242
RRIRKRPPRLPRPRPRPLPYPRP | -0.0627
RRIRKRPPRLPRPRPRPLQNPRP | 0.551
RRIRKRPPRLPRPRPRPLQSPRP | 0.295
RRIRKRPPRLPRPRPRPLSMPRP | 0.0129
RRIRKRPPRLPRPRPRPLTEPRP | 0.397
RRIRKRPPRLPRPRPRPLTLPRP | 0.0103
RRIRKRPPRLPRPRPRPLWNPRP | 0.109
RRIRKRPPRLPRPRPRPLYAPRP | 0.0609
RRIRKRPPRLPRPRPRPLYSPRP | -0.105

Sequence | shrunken log2 fold change
RRIRKRPPRLPRPRPRPMDAPRP | 0.415
RRIRKRPPRLPRPRPRPMEKPRP | -0.0153
RRIRKRPPRLPRPRPRPMFKPRP | -0.0779
RRIRKRPPRLPRPRPRPMFTPRP | -0.0707
RRIRKRPPRLPRPRPRPMHHPRP | -0.126
RRIRKRPPRLPRPRPRPMMEPRP | -0.00277
RRIRKRPPRLPRPRPRPMMIPRP | -0.0134
RRIRKRPPRLPRPRPRPMMPPRP | 0.234
RRIRKRPPRLPRPRPRPMNKPRP | 0.0136
RRIRKRPPRLPRPRPRPMPLPRP | -0.00591
RRIRKRPPRLPRPRPRPMPNPRP | 0.399
RRIRKRPPRLPRPRPRPMQEPRP | 0.0391
RRIRKRPPRLPRPRPRPMQVPRP | 0.175
RRIRKRPPRLPRPRPRPMRCPRP | 1.16
RRIRKRPPRLPRPRPRPMRIPRP | 0.34
RRIRKRPPRLPRPRPRPMRNPRP | 1.32
RRIRKRPPRLPRPRPRPMRTPRP | 3.66
RRIRKRPPRLPRPRPRPMSNPRP | -0.00773
RRIRKRPPRLPRPRPRPMSQPRP | -0.0623
RRIRKRPPRLPRPRPRPMTGPRP | 0.0188
RRIRKRPPRLPRPRPRPMYRPRP | 0.0629
RRIRKRPPRLPRPRPRPNCGPRP | 0.0611
RRIRKRPPRLPRPRPRPNGDPRP | -0.024
RRIRKRPPRLPRPRPRPNIFPRP | -0.021
RRIRKRPPRLPRPRPRPNITPRP | -0.0249
